Test system: C[C@@H]1O[C@@H]1P(=O)(O)O
Assay: pyruvate kinase-lactate dehydrogenase coupled assay
Type: biochemical, Streptomyces wedmorensis
Settings: 1 mM ATP, 10 mM MgCl2, 100 mM KCl, pH 7.2, 25 °C

Question: What does the source list for “FomA (fosfomycin resistance kinase FomA) (Streptomyces wedmorensis)”?
Answer: Km: 9.9 ± 0.7 µM; kcat: 155.9 ± 1.5 s⁻¹

— PMC3153955
